We go through three molecules from article PMC2121028 (The Journal of Cell Biology, 1996).

B2: alpha-COP, the 135-kD subunit of coatomer (bovine), GAL4 fusion (natural protein, UniProt Q27954 1-1224, looked up)
chain: MLTKFETKSARVKGLSFHPKRPWILTSLHNGVIQLWDYRMCTLIDKFDEHDGPVRGIDFHKQQPLFVSGGDDYKIKVWNYKLRRCLFTLLGHLDYIRTTFFHHEYPWILSASDDQTIRVWNWQSRTCVCVLTGHNHYVMCAQFHPSEDLVVSASLDQTVRVWDISGLRKKNLSPGAVESDVRGITGVDLFGTTDAVVKHVLEGHDRGVNWAAFHPTMPLIVSGADDRQVKIWRMNESKAWEVDTCRGHYNNVSCAVFHPRQELILSNSEDKSIRVWDMSKRTGVQTFRRDHDRFWVLAAHPNLNLFAAGHDGGMIVFKLERERPAYAVHGNMLHYVKDRFLRQLDFNSSKDVAVMQLRSGSKFPVFSMSYNPAENAVLLCTRASNLENSTYDLYTIPKDADTQNPDAPEGKRSSGLTAVWVARNRFAVLDRMHSLLIKNLKNEITKKVQVPNCDEIFYAGTGNLLLRDAESITLFDVQQKRTLASVKISKVKYVIWSADMSHVALLAKHAIVICNRKLEALCNIHENIRVKSGAWDESGVFIYTTSNHIKYAVTTGDYGIIRTLDLPIYVTRVKGNNVYCLDRECRPRVLTIDPTEFKFKLALINRKYDEVLHMVRNAKLVGQSIIAYLQKKGYPEVALHFVKDEKTRFSLALECGNIEIALEAAKALDDKNCWEKLGEVALLQGNHQIVEMCYQRTKNFDKLSFLYLITGNLEKLRKMMKIAEIRKDMSGHYQNALYLGDVSERVRILKNCGQKSLAYLTAATHGLDEEAESLKETFDPEKETIPDIDPNAKLLQPPAPIMPLDTNWPLLTVSKGFFEGSIASKGKGGALAADIDIDTVGTEGWGEDAELQLDEDGFVEATEGLGDDALGKGQEEGGGWDVEEDLELPPELDIPPGAAGGAEDGFFVPPTKGTSPTQIWCNNSQLPVDHILAGSFETAMRLLHDQVGVTQFGPYKQLFLQTYARGRTTYQALPCLPSMYGYPNRNWKDAGLKNGVPAVGLKLNDLIQRLQLCYQLTTVGKFEEAVEKFRSILLSVPLLVVDNKQEIAEAQQLITICREYIVGLSMETERKKLPKETLEQQKRICEMAAYFTHSNLQPVHMILVLRTALNLFFKLKNFRTAAAFARRLLELGPKPEVAQQTRKILSACEKNPTDAYQLNYDMHNPFDICAASYRPIYRGKPVEKCPLSGACYSPEFKGQICKVTTVTEIGKDVIGLRISPLQFR
B3: epsilon-COP, GAL4 fusion (natural protein)
chain: not shown

Experiment [1] deals with B2. The experiment can be described thus: two-hybrid.
In the experiment “epsilon-COP, GAL4 fusion” the target is B3. As to the kind of experiment: two-hybrid.

epsilon-COP, GAL4 fusion, sequence (Q28104 whole entry, the tested form may be a part): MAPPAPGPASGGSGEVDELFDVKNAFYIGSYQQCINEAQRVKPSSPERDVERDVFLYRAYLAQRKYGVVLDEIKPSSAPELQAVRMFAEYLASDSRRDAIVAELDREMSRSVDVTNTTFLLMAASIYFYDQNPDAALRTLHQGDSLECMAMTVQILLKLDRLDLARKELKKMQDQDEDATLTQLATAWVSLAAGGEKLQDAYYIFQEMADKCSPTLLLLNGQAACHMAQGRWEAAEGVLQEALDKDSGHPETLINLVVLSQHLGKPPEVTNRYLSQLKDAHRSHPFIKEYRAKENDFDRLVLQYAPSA

B1: beta'-COP, GAL4 fusion (natural protein, bovine, UniProt P35605 1-906, looked up)
chain: MPLRLDIKRKLTARSDRVKSVDLHPTEPWMLASLYNGSVCVWNHETQTLVKTFEVCDLPVRAAKFVARKNWVVTGADDMQIRVFNYNTLERVHMFEAHSDYIRCIAVHPTQPFILTSSDDMLIKLWDWDKKWSCSQVFEGHTHYVMQIVINPKDNNQFASASLDRTIKVWQLGSSSPNFTLEGHEKGVNCIDYYSGGDKPYLISGADDRLVKIWDYQNKTCVQTLEGHAQNVSCASFHPELPIIITGSEDGTVRIWHSSTYRLESTLNYGMERVWCVASLRGSNNVALGYDEGSIIVKLGREEPAMSMDANGKIIWAKHSEVQQANLKAMGDAEIKDGERLPLAVKDMGSCEIYPQTIQHNPNGRFVVVCGDGEYIIYTAMALRNKSFGSAQEFAWAHDSSEYAIRESNSVVKIFKNFKEKKSFKPDFGAESIYGGFLLGVRSVNGLAFYDWENTELIRRIEIQPKHIFWSDSGELVCIATEESFFILKYLSEKVLAAQETHEGVTEDGIEDGFEVLGEIQEIVKTGLWVGDCFIYTSSVNRLNYYVGGEIVTIAHLDRTMYLLGYIPKDNRLYLGDKELNIVSYSLLVSVLEYQTAVMRRDFSMADKVLPTIPKEQRTRVAHFLEKQGFKQQALTVSTDPEHRFELALQLGELKIAYQLAVEAESEQKWKQLAELAISKCQFGLAQECLHHAQDYGGLLLLATASGNASMVNKLAEGAERDGKNNVAFMSYFLQGKLDACLELLIRTGRLPEAAFLARTYLPSQVSRVVKLWRENLSKVNQKAAESLADPTEYENLFPGLKEAFVVEEWVKETHADLWPAKQYPLVTPNEERNVMEEAKGFQPSRSAAQQELDGKPASPTPVIVTSQTANKEEKSLLELEVDLDNLEIEDIDTTDINLDEDILDD
B1: the “generations/day in -His + 25 mM AT” value in experiment [1] came to 2.11 generations/day.

B2: in the experiment with epsilon-COP, GAL4 fusion, the “generations/day in -His + 25 mM AT” value came out at 2.8 generations/day.

For the molecule B3, the “generations/day in -His + 25 mM AT” value in experiment [1] stood at 5.2 generations/day.
